# From IntAct's records for PubMed 31515488
# B1: Protein DDI1 homolog 1 (Homo sapiens), Q8WTU0 (parent)
# chain: MLITVYCVRRDLSEVTFSLQVSPDFELRNFKVLCEAESRVPVEEIQIIHMERLLIEDHCSLGSYGLKDGDIVVLLQKDNVGPRAPGRAPNQPRVDFSGIAVPGTSSSRPQHPGQQQQRTPAAQRSQGLASGEKVAGLQGLGSPALIRSMLLSNPHDLSLLKERNPPLAEALLSGSLETFSQVLMEQQREKALREQERLRLYTADPLDREAQAKIEEEIRQQNIEENMNIAIEEAPESFGQVTMLYINCKVNGHPLKAFVDSGAQMTIMSQACAERCNIMRLVDRRWAGVAKGVGTQRIIGRVHLAQIQIEGDFLQCSFSILEDQPMDMLLGLDMLRRHQCSIDLKKNVLVIGTTGTQTYFLPEGELPLCSRMVSGQDESSDKEITHSVMDSGRKEH
# partner: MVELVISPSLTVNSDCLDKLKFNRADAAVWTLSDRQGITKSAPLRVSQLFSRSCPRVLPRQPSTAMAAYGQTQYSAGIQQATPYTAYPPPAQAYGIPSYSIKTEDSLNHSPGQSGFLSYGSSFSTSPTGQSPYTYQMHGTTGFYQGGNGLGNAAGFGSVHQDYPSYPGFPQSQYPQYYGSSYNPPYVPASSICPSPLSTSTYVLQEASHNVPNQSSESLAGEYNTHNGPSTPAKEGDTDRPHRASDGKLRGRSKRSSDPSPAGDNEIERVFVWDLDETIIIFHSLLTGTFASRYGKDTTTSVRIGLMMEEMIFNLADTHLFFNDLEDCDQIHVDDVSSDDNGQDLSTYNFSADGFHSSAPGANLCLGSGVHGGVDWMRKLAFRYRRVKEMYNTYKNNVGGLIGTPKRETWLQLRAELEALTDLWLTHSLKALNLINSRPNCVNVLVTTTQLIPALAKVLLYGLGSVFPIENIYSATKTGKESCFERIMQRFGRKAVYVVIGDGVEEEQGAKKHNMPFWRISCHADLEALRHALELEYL
# B2: Tuftelin-interacting protein 11 (Homo sapiens), Q9UBB9 (parent)
# chain: MSLSHLYRDGEGRIDDDDDERENFEITDWDLQNEFNPNRQRHWQTKEEATYGVWAERDSDDERPSFGGKRARDYSAPVNFISAGLKKGAAEEAELEDSDDEEKPVKQDDFPKDFGPRKLKTGGNFKPSQKGFAGGTKSFMDFGSWERHTKGIGQKLLQKMGYVPGRGLGKNAQGIINPIEAKQRKGKGAVGAYGSERTTQSMQDFPVVDSEEEAEEEFQKELSQWRKDPSGSKKKPKYSYKTVEELKAKGRISKKLTAPQKELSQVKVIDMTGREQKVYYSYSQISHKHNVPDDGLPLQSQQLPQSGKEAKAPGFALPELEHNLQLLIDLTEQEIIQNDRQLQYERDMVVNLFHELEKMTEVLDHEERVISNLSKVLEMVEECERRMQPDCSNPLTLDECARIFETLQDKYYEEYRMSDRVDLAVAIVYPLMKEYFKEWDPLKDCTYGTEIISKWKSLLENDQLLSHGGQDLSADAFHRLIWEVWMPFVRNIVTQWQPRNCDPMVDFLDSWVHIIPVWILDNILDQLIFPKLQKEVENWNPLTDTVPIHSWIHPWLPLMQARLEPLYSPIRSKLSSALQKWHPSDSSAKLILQPWKDVFTPGSWEAFMVKNIVPKLGMCLGELVINPHQQHMDAFYWVIDWEGMISVSSLVGLLEKHFFPKWLQVLCSWLSNSPNYEEITKWYLGWKSMFSDQVLAHPSVKDKFNEALDIMNRAVSSNVGAYMQPGARENIAYLTHTERRKDFQYEAMQERREAENMAQRGIGVAASSVPMNFKDLIETKAEEHNIVFMPVIGKRHEGKQLYTFGRIVIYIDRGVVFVQGEKTWVPTSLQSLIDMAK
# partner: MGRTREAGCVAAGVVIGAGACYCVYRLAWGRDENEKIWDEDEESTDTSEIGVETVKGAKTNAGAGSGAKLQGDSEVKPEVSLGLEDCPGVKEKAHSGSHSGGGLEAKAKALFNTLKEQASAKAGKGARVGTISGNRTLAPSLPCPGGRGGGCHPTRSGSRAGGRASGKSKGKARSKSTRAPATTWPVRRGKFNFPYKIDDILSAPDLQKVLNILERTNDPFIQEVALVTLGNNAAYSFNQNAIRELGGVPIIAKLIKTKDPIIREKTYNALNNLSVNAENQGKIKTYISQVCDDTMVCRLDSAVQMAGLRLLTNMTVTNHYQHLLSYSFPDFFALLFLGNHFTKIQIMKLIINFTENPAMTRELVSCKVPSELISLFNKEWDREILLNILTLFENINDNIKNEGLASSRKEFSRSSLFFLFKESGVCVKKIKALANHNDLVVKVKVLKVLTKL
# B3: Vacuolar protein sorting-associated protein 37B (Homo sapiens), Q9H9H4 (parent)
# chain: MAGAGSEARFAGLSLVQLNELLEDEGQLTEMVQKMEETQNVQLNKEMTLASNRSLAEGNLLYQPQLDTLKARLTQKYQELQVLFEAYQIKKTKLDRQSSSASLETLLALLQAEGAKIEEDTENMAEKFLDGELPLDSFIDVYQSKRKLAHMRRVKIEKLQEMVLKGQRLPQALAPLPPRLPELAPTAPLPYPAPEASGPPAVAPRRIPPPPPPVPAGRLATPFTAAMSSGQAVPYPGLQCPPLPPRVGLPTQQGFSSQFVSPYPPPLPQRPPPRLPPHQPGFILQ
# B4: Rieske domain-containing protein (Homo sapiens), Q8TAC1 (parent)
# chain: MNLDGSAQDPEKREYSSVCVGREDDIKKSERMTAVVHDREVVIFYHKGEYHAMDIRCYHSGGPLHLGDIEDFDGRPCIVCPWHKYKITLATGEGLYQSINPKDPSAKPKWCSKGIKQRIHTVTVDNGNIYVTLSNEPFKCDSDFYATGDFKVIKSSS
# partner: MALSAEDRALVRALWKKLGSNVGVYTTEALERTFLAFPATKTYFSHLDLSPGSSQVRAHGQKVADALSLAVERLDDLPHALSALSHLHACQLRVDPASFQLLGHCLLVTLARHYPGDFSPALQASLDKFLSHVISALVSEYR
# B5: Rho guanine nucleotide exchange factor 39 (Homo sapiens), Q8N4T4 (parent)
# chain: MELSCPGSRCPVQEQRARWERKRACTARELLETERRYQEQLGLVATYFLGILKAKGTLRPPERQALFGSWELIYGASQELLPYLEGGCWGQGLEGFCRHLELYNQFAANSERSQTTLQEQLKKNKGFRRFVRLQEGRPEFGGLQLQDLLPLPLQRLQQYENLVVALAENTGPNSPDHQQLTRAARLISETAQRVHTIGQKQKNDQHLRRVQALLSGRQAKGLTSGRWFLRQGWLLVVPPHGEPRPRMFFLFTDVLLMAKPRPPLHLLRSGTFACKALYPMAQCHLSRVFGHSGGPCGGLLSLSFPHEKLLLMSTDQEELSRWYHSLTWAISSQKN
# partner: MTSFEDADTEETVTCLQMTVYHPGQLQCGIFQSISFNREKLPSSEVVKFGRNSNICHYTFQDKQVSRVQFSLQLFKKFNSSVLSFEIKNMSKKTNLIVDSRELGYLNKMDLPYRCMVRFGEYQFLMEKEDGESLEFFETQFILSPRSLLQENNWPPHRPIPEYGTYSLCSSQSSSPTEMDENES
# B6: NAD kinase (Homo sapiens), O95544 (parent)
# chain: MEMEQEKMTMNKELSPDAAAYCCSACHGDETWSYNHPIRGRAKSRSLSASPALGSTKEFRRTRSLHGPCPVTTFGPKACVLQNPQTIMHIQDPASQRLTWNKSPKSVLVIKKMRDASLLQPFKELCTHLMEENMIVYVEKKVLEDPAIASDESFGAVKKKFCTFREDYDDISNQIDFIICLGGDGTLLYASSLFQGSVPPVMAFHLGSLGFLTPFSFENFQSQVTQVIEGNAAVVLRSRLKVRVVKELRGKKTAVHNGLGENGSQAAGLDMDVGKQAMQYQVLNEVVIDRGPSSYLSNVDVYLDGHLITTVQGDGVIVSTPTGSTAYAAAAGASMIHPNVPAIMITPICPHSLSFRPIVVPAGVELKIMLSPEARNTAWVSFDGRKRQEIRHGDSISITTSCYPLPSICVRDPVSDWFESLAQCLHWNVRKKQAHFEEEEEEEEEG
# partner: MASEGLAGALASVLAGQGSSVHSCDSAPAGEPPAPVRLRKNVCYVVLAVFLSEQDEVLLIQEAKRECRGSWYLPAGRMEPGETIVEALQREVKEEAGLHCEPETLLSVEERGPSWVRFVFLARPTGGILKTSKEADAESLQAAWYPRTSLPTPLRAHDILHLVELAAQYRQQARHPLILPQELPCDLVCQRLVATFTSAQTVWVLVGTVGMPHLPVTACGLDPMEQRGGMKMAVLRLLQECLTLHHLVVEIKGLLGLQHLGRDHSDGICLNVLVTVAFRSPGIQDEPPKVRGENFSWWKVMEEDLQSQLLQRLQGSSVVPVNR
# B7: PiggyBac transposable element-derived protein 1 (Homo sapiens), Q96JS3 (parent)
# chain: MYEALPGPAPENEDGLVKVKEEDPTWEQVCNSQEGSSHTQEICRLRFRHFCYQEAHGPQEALAQLRELCHQWLRPEMHTKEQIMELLVLEQFLTILPKELQPCVKTYPLESGEEAVTVLENLETGSGDTGQQASVYIQGQDMHPMVAEYQGVSLECQSLQLLPGITTLKCEPPQRPQGNPQEVSGPVPHGSAHLQEKNPRDKAVVPVFNPVRSQTLVKTEEETAQAVAAEKWSHLSLTRRNLCGNSAQETVMSLSPMTEEIVTKDRLFKAKQETSEEMEQSGEASGKPNRECAPQIPCSTPIATERTVAHLNTLKDRHPGDLWARMHISSLEYAAGDITRKGRKKDKARVSELLQGLSFSGDSDVEKDNEPEIQPAQKKLKVSCFPEKSWTKRDIKPNFPSWSALDSGLLNLKSEKLNPVELFELFFDDETFNLIVNETNNYASQKNVSLEVTVQEMRCVFGVLLLSGFMRHPRREMYWEVSDTDQNLVRDAIRRDRFELIFSNLHFADNGHLDQKDKFTKLRPLIKQMNKNFLLYAPLEEYYCFDKSMCECFDSDQFLNGKPIRIGYKIWCGTTTQGYLVWFEPYQEESTMKVDEDPDLGLGGNLVMNFADVLLERGQYPYHLCFDSFFTSVKLLSALKKKGVRATGTIRENRTEKCPLMNVEHMKKMKRGYFDFRIEENNEIILCRWYGDGIISLCSNAVGIEPVNEVSCCDADNEEIPQISQPSIVKVYDECKEGVAKMDQIISKYRVRIRSKKWYSILVSYMIDVAMNNAWQLHRACNPGASLDPLDFRRFVAHFYLEHNAHLSD
# Variants of: B1
# Settings: with eya2_human EYA2, O00167
row,effect of a mutation on the interaction,Variant
1,with no effect,G136S
2,with no effect,D323N
3,with no effect,R87C

# Variants of: B2
# Settings: with armx1_human ARMCX1, Q9P291
row,effect of a mutation on the interaction,Variant
1,with no effect,S688L
2,with no effect,R8Q

# Variants of: B3
# Settings: with vps28_human VPS28, Q9UK41
row,effect of a mutation on the interaction,Variant
1,with no effect,M151I

# Variants of: B4
# Settings: with hbat_human HBQ1, P09105
row,effect of a mutation on the interaction,Variant
1,disrupting interaction strength,D38A

# Variants of: B5
# Settings: with tifa_human TIFA
row,effect of a mutation on the interaction,Variant
1,with no effect,D204N
2,with no effect,R230C

# Variants of: B6
# Settings: with nud18_human NUDT18, Q6ZVK8
row,effect of a mutation on the interaction,Variant
1,with no effect,R249W

# Variants of: B7
# Settings: with traf2_human TRAF2, Q12933
row,effect of a mutation on the interaction,Variant
1,disrupting interaction strength,Q248E

# Variants of: B7
# Settings: with zsc22_human ZSCAN22, P10073
row,effect of a mutation on the interaction,Variant
1,with no effect,Q248E

# Variants of: B7
# Settings: with zn446_human ZNF446, Q9NWS9
row,effect of a mutation on the interaction,Variant
1,with no effect,Q248E
